Measurements published in patent publication US20240327848.

Target: human serum albumin (HSA) (Homo sapiens) (UniProt P02768)
Test: ELONA
Conditions: Nap-dU at all positions marked 6 (n); bead-based ELISA, buffer SB18 (5 mM MgCl2), 37 C

Row | Sequence | Kd
1 | CAGGTCGAGCTGTACGCGTGTGTGACCTG [AL006] | 19 nM
2 | CTCTCCCAGGTCGAGCTGTACGCGTGTGTGACCTG [AL003] | 2.24 nM
3 | CTCTCCCAGGTCGAGCTGTACGCGTGTGTGACCTGACGTG [AL002] | 20.7 nM
4 | TCCCAGGTCGAGCTGTACGCGTGTGTGACC [AL005] | 14.7 nM
